# The nanobody polyreactivity screen of Harvey et al. (2022)
# Experiment: yeast display, Sf9 membrane polyspecificity reagent, FACS + sequencing; frameworks hold sequencing errors
# Summary of the method: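 Sorting gates, low and high (top ~1%), were placed on anti-HA fluorescence to track expression and on streptavidin fluorescence to track reagent binding. A clone's polyreactivity label is taken from the gate it came out of. The reagent was 10% biotinylated, detergent-solubilized Sf9 membrane, applied for 1 hour at 4 °C to galactose-induced yeast display cells.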
row,Sequence,polyreactivity (PSR sort gate)
1,QVQLVESGGGLVQAGGSLRLSCAASGFTFYKNTMGWYRQAPGKERELVAAISYRGGTYYADSVKGRFTISRDNAKNTVYLQMNSLKPQDTAVYYCNARYRGKYSSYGYWGQGTQVTVSS,high polyreactivity
2,QVQLVESGGGLVQAGGSLRLSCAASGSIIPLYAMGWYRQPPGKERELVAAITSNGGRTYYADSVKGRFTISRDNAKNTVYLQMNSLKPEDTAVYYCNKYLLDYRRGRSDYWGQGTQVTVSS,low polyreactivity
3,QVQLVESGGGLVQAGGSLRLSCAASGFIIRKYAMGWYRPAPGKEWELVAAISGRADSTYYADSVKGRFTISRDNAKNTVYLQMNSLKPDDTAVYYCAAYWHSKIGKGYDYWGQGTQVTVSS,high polyreactivity
4,QVQLGESGGGLVQAGGSLRLSCAASGGIFDIYAMGWYRQAPGKERELVAAIRGSGGRTYYADSVKGRFTISRDNAKNSLYLQMNSLKPEDTAVYYCAARPSIVTGLRYGYWGQGTQVTVSS,high polyreactivity
5,HGQLVESGGGLVQAGGSLRLSCAASGSHLSNYAMGWYREAPGKERELVAAISLSVGSTYYADSVKGRFTISRDNAKNTVYLQMNSLKPEDTAVYYCAADDFYSGPFRGDYWGQGTQVTVSS,low polyreactivity
6,QVQLVESVGGLVQAGGSLRLSCAASGRTFFKYAMGWYRQAPGKERELVAAITASGGSTYYADSVKGRFTISRDNAKNTVYLQMNSLKPEDTAVYYCAARWRSVFWEYYYWGQGTQVTLSS,high polyreactivity
7,QVQLVESGGGLVQAGGSLRLSCAASGSTFGVNAMGWYRQAPGKERELVASIRKRGGTTYYADSVKGRFTISRDNAKNTVYLQMNSLKPEDTAVYYCAAQYGDEVDYWGQGTQVTVSS,high polyreactivity
8,QVQLVESGGGLVQAGGSLRLSCAASGRIFSSYVMGWYRQAPGKERELVAAIRWSGGSTYYADSVKGRFTISRDNAKNTVYLQMNSLKPEDTAVYYCAAVVYRYYATGYGYWGQGTQVTVSS,high polyreactivity
9,QVQLVDSGGGLVQAGGSLRLSCAASGSTIPIYAMVWYRQAPGKERELVARITWSGGSTYYADSVKGRFTISRDNAKNTVYLQMNSLKPEDTAVYYCAAVVITTPYDRYYYWGQGTQVTVSS,high polyreactivity
10,QVQLVESGGGLVQAGGSLRLSCAASGSIFSYYAMGWYRQAPGKERELVATISSVGSTNYADSVKGRFTISRDNPKNTVYLQMNSLKPEDTAVYYCAATIGHNGFDYWGQGTQVTVSS,low polyreactivity
11,QVQLVESGGGIVQAGGSLRLSCAASGSIFYAYAMGWYRQAPGKERELVAAINRGDSTTYADSVKGRITISRDNAKNTVYLQMNSLKPEDTAVYYCAKSRPSRKYYAGVTGQGDYWGQGTQVTVSS,low polyreactivity
12,QVQLVESGGGLVQAGGSLRLSCAASGLIFYYYSMGWYRQAPGKERELVAAISGGGSTYYADSVKGRFTISRDNAKNTVYLQMNSLKPEDTAVYYCAADTRTSYYKDDYDYWGQGTQVTVSS,low polyreactivity
13,QVQLVESGGGLVQAGVSLRLSCAASASTFTKYAMGWYRQAPGKERELVAAITASGGNTYYADSVKGRFTISRDNAKNTVYLQMYSLKPEDTAVYYCATGYHRWSSWALDYWGQGTQVTVSS,high polyreactivity
14,QVQLVESGGGLVQAGGSLRLSCAASGSIFFQNAMGWYRQAPGKESEFVAAITWRGASTYYADSVKGRFTISRDNATNTVYLQMNSLKPEDTAVYYCAARQHYYYGWYYYWGQGTQVTVSS,high polyreactivity
15,QVQLVESGGGLVQAGGSLRLSCAASGSTFYGYAMGWSRQAPGKERELVAAISSSGSRTYYADSVKGRFTISRDNANNPVYLQMNSLKPEDTAVYYCAAVSTLLYYHYYTRDYWGQGTEVTVSS,high polyreactivity
16,QDQLVESGGGLVQAGGSLRLSCAASGFIFYDNAMGWYRQAPGKERELVAAISAIGGSTYYADSVKGRFTISRDNAKNTVYLQMNSLKPEDTAVYYCAVPEILDPKYQNDYWGQGTQVTVSS,low polyreactivity
17,QVQLVESGGGLVQAGGSLRLSCAASGFIFYQYAMGWYRQAPGKERELVAAISKSGGNTYYADSVKGRFTISRDNAKNTVYLQMNSLKPEDTAVYYCAADRGQRGMYYWGQGSQVTVSS,high polyreactivity
18,QVQLVESGGGLVQAGGSLRLSCAASGRIFSFYTMGWYRQAPGKERELVAAISGSGGSTYYADSVKGRFTISRDNANNTFYLQMNSLKPEDTAVYYCAAGYGFRYYLYDYWGQGTQVTVSS,high polyreactivity
19,QVQLVESGGGLVQAGGSLRLSCAASGSIFGVYAMGWYRQAPGKEREFVASISWSAGSTYYADSVKGRFTISRDNAKNTVYLQMNSLKPEDTAVYYCAARVWRYPYYWGQGTQVTVSS,high polyreactivity
20,QEQLQESGGGLVQAGGSLRLSCAASGNISTHQLYMGSYRQAPGKEREFVAAINFGASTYYADSVKGRNTISRDNAKYTVYLQMNSLKPEDTAVYYCNADWYYYYEVDDYWGQGTQVTVSS,low polyreactivity
21,QVQLVESGGGLVQAGGSLRLSCDASGNTFRGYAMGWYRQAPGKERELVAAITSGGRTYYADSVKGRFTISRDNAKNTVYLQMNSLKPEDTAVYYCNAVLGRYVTYNYWGQGTQVTVSS,high polyreactivity
22,QVQLVESGGGLVQAGGSLRLSCAASGITFKSYAMGWYRQAPGKERELVAAISRRGGSTYDADSVKGRFTISRDNAKNTVYLQMNSLKPEDTAVYYCNAAVGYYSYSYYTKVGVDYLGQGTQVTVSS,high polyreactivity

row,Sequence,polyreactivity (PSR sort gate)
1,QVQLEESGGGLVQAGGSLRLSCAASGSTLNYYAMGWYRQAPGKERELVAAITWSGGSTSYADSVKGRFTISRDKAKNTVYLQMNSLKQEDTAVYYCATDFPTVQLYDTDWLSSDMGYWGQGTQVTVSS,low polyreactivity
2,QVQLVESCGGLVQAGGSLRLSCAASGRTFGYYAMGWYRQAPGKEREFVAAITAGGGSTYYADSVKGRFTISRDNAKNTVYLQMNSLKPEDTAVYYCAKRDYWGQGTQVTVSS,high polyreactivity
3,QVQLVEAGGRLVQAGGSLRLSCAASGITFTYYAMGGYRQPPGKDMELVAAISWSGGSTDYADSVKGRFTISRDNAKNTVYLQMNSLKPEDTAFYYCAATFSRFAYYYWGQGTPVTVSS,high polyreactivity
4,QVQLVESGGGLVQAGGSLRLSCAASGSIFRGYTMGWYRQAPGKERELVAAISWSGGSTYYADSVKGRFTISRDNAKNTVYLQMNSLKPEDTAVYDCAAGDYYHRIFLWYDYWGQGTQVTVSS,low polyreactivity
5,QVQLVESGGGLVQAGGSLRLSCAASGSITSNVMGWYRQAPGKEMELVAAISRGGGSTYYADSVKGRFTISRDNAKNTVYLQMNSLKPEDTAVFYCAADVWGGLLPGYDYWGQGTQVTVSS,high polyreactivity
6,QVQLVESGGGLVQAGGSLRLSCADSGFILGANDMGWYRQAPGKERELVAAIRSSDGTTYYADSVKGRFTISRDNAKNTVYLQMNSLKPEDTAVYYCAADWRLLYDYWGQGTQVTVSS,high polyreactivity
7,QVQLVESGGGLVQAGGSLRLSCAASGSTFDSYAMGWYRQAPGKERELVAAISTSGGSTYYADSVKGRFTISRDNAKNTVYLQMNSLKPEDTAVYYCAAYSISSRMNYWGQGSQVTVSS,high polyreactivity
8,QVQHVESGGGLVQAGGSRRLTCAASGYTFYKYAMGWYRQAPGKERELVAAISSSGGSTYYADSVKGRFTISRDNAKNTGYLHMNSLKPVDTAVYYCAAFVYSNDYDYWGQGTQVTVSS,high polyreactivity
9,QVQLVETGGGLVQAGGSLRLSCAGSGSTFTSYVMGWYRQAPGKERELVAAITSSGGDTYYADSVKGRFTISRDNAKNTVYLQMNSLKPEVTAVYYCATRSYYRSSYYRNRYPYDYWGQGTQVTVSS,low polyreactivity
10,QVQLVESGGGLVQAGGSLRLSCAASGRIFNYYAMGWYRQAHGKERELVAVITYSAGRTYYADSVKGRFTISRDNAKNTVYLQMNSLKPEDTAVYNCNADGWVSVSKHYYYWGQGTQVTVSS,low polyreactivity
11,QVQLVESGGGLVQAGGSLRLSCAASGSNSRYAMGWYRHARGKERELVRAITRSGGSTHYADSVKGRFTISRDNAMNTVYLQMNSLKPEDTAVYYCATRYYRGVIRYPYDSWGQGTQVTLSS,high polyreactivity
12,QVKLVESGGGLVQAGGSLRLSCAASGRICGYYAMGWYRQAPGNERELVAAISWSGGSTYYADSVKGRFTISRDNAMNTVYLQRNSLKPEDTAVYYCNARYPNTRKYDYWGQVTQVTVSS,high polyreactivity
13,QVQLVESGGGLVQAGGSLRLSCAASGSIFVTNAMGWYRQAPGKERELVAAISGGADSTYADSVKGRFTISRDNAKNTVYLQMNSLKPEDTAVYYCAAKVRGWHYYYCGQGTQVTVSS,low polyreactivity
14,QVQLVESGGGLVQAGGSLRLSCAASGFNFRLYAMGWYRQAPGKERELVATITQRGGRTYYADSVKGRFTISLDNAHNTVYLQMNSLKPEDTAVYYCAATWTVTTGTKFDYWGQGTQVTVAS,high polyreactivity
15,QVQLVESGGGLDQAGGSLRLSCAASGFIFFQYAMGWYRQAPGKERELVAAISGSGVTTYYADSVKGRFTISRDNAKNTVYLQMNSLKPEDTAVYYCAADTPPYYAYWDVSFEYYYWGQGTQVTVSS,low polyreactivity
16,QVQLVESGGGLVQAGGSLRLSCAASGSIYTYYAMGWYRQAPGKEMELVADIRWSGGSTYYADSVKGRFTISRDNAKNTVYLQMNSLKPEDTAVYYCNARYYSYCPIYNFDYWGQGTQVTVSS,low polyreactivity
17,QVQLVESGGGLVQAGGSLRLSCAASGRTFVANAMGWYRQAPGKERELVAAISSSGGSTYYADSVKGRFTISRDNAKNTVYLQMNSLKPEDTAVYYCNRVGVYYRLYPYYYWGQGTQVTVSS,high polyreactivity
18,QVQLVESGGGLVQAGGSLRLTCAASGRIFIGNAMGWYRQAPGKERELVAAISSGGSTDYADSVKGRFTISRDNAKNTVYLQMNSLKPEDTAVYYCNADYEGYYDYGYWGQGTQVTVSS,low polyreactivity
19,QVQLVESGGGLVQAGGSLRLTCAASGSIFYYNAKGWYRQAPAKERELVATITQTGGSTYYADSVKARFTISRDNAKNTVYLQMNSLKPEDTAVYYCASDYFPYEYDYWGQGTQVTVSS,low polyreactivity
20,QVQLVESGGGIVQAGGSLRLICAASGFTFWDYAMGWHRQAPGKERELVAAISWSGGSTYYADSVKGRFTISRDNAKNTVYLQMNSLKPEDTAVYYCNAVHYSRYVHPGHSMYYWGQGTQVTVSS,low polyreactivity
21,QVQLVESGGGLVQAGGSLRLSCAASGSIFAPYAMGWYRQAPGTERELVAAITWSGDSTYYADSVKGRFTISRDNAKNTVYLQMNSLKPEDTAVYYCATEEVYGQGNYWGQGTQVTVSS,low polyreactivity
